Source: article PMC4950607

Test system: RsmA (His6-Thb-RsmA) (Pseudomonas aeruginosa)
Test: EMSA
Settings: 17 nt 3' extension hybridized to DNA primer

Substance: RsmW sRNA, 3'-extended, labeled
- Kd: 11.5 nM
